Results taken from publication PMC12700824 (Nature Structural & Molecular Biology, 2025).
Residue numbers refer to the chain shown, from its start.

Assays:
[1] = biological target: the molecule itself; assay: SEC; analytical SEC, Superdex Increase 10/300 GL, 50 mM Tris pH 8, 200 mM NaCl, 0.5 mM TCEP; injection concentrations up to 20 µM (mutant mixture: 10 µM each); sizes are coarse estimates from globular standards
[2] = biological target: the molecule itself; assay: dynamic light scattering (DLS); FAM118B24–334 WT at 10 µM in PBS pH 7.4, 20 °C
[3] = biological target: T1, FAM118B24–334-F122R (human, UniProt Q9BPY3 24-334, F122R); assay: ITC; 25 °C, PBS; FAM118B24–334-L32R in the syringe at 500 µM titrated into FAM118B24–334-F122R in the cell at 50 µM; conditions: both partners purified
T1 construct: also called head-surface mutant; not shown: His6, C-terminal, kept

B1: human FAM118B residues 24-334, C-terminally His-tagged, wild type (domain or fragment, UniProt Q9BPY3 24-334, looked up)
chain: PTKKPRKLLPSLKTKKPRELVLVIGTGISAAVAPQVPALKSWKGLIQALLDAAIDFDLLEDEESKKFQKCLHEDKNLVHVAHDLIQKLSPRTSNVRSTFFKDCLYEVFDDLESKMEDSGKQLLQSVLHLMENGALVLTTNFDNLLELYAADQGKQLESLDLTDEKKVLEWAQEKRKLSVLHIHGVYTNPSGIVLHPAGYQNVLRNTEVMREIQKLYENKSFLFLGCGWTVDDTTFQALFLEAVKHKSDLEHFMLVRRGDVDEFKKLRENMLDKGIKVISYGDDYADLPEYFKRLTCEISTRGTSAGMVREG
notes: not shown: His6, C-terminal, kept
stoichiometry N [1]: > 8 protomers
stoichiometry N [2]: < 10 subunits

B2: FAM118B24–334-L32R (domain or fragment, human, UniProt Q9BPY3 24-334, looked up)
chain: B1 chain with L9R
notes: also called tail-surface mutant; not shown: His6, C-terminal, kept
stoichiometry N [3]: ~1
